Test results: patent US20090118184A1 (UNIVERSITY OF ROCHESTER, published 2009)
Changes are numbered by the printed parent chain.

T1: factor VIIIa A1/A3C1C2 dimer, Glu1984Ala (human, UniProt P00451 20-391; P00451 1709-2351)
T1 sequence 1: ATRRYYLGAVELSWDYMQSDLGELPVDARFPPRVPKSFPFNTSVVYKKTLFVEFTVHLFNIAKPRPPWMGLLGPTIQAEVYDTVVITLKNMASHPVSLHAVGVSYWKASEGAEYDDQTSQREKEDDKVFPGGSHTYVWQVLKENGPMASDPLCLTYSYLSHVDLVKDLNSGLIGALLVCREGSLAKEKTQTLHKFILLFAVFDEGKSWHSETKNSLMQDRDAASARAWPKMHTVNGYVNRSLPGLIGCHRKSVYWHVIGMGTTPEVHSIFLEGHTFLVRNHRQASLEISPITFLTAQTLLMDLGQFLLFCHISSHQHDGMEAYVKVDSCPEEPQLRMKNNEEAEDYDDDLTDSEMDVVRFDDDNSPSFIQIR
T1 sequence 2: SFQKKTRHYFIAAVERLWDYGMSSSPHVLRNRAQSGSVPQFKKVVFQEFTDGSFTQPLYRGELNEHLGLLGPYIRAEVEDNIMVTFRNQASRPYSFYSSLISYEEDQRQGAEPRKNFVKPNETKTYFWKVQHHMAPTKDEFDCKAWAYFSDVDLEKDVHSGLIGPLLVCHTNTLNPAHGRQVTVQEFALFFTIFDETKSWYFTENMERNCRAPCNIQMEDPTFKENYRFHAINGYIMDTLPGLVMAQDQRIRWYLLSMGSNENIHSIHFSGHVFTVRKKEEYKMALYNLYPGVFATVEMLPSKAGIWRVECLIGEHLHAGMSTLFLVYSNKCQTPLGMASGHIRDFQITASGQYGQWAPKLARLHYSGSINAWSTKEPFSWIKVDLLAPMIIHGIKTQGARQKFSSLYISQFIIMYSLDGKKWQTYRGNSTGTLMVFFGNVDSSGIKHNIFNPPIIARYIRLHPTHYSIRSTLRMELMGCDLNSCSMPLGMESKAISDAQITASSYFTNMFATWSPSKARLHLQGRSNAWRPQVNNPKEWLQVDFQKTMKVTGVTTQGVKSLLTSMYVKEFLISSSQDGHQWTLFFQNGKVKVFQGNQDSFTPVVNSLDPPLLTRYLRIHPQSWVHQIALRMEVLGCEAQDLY

T2: factor VIIIa A1/A3C1C2 dimer, wild type (human, UniProt P00451 20-391; P00451 1709-2351)
T2 sequence 1: T1 sequence 1
T2 sequence 2: T1 sequence 2 with A295E

T3: factor VIIIa A1/A3C1C2 dimer, Glu1984Val (human, UniProt P00451 20-391; P00451 1709-2351)
T3 sequence 1: T1 sequence 1
T3 sequence 2: T1 sequence 2 with A295V

T4: factor VIIIa A1/A3C1C2 dimer, Glu113Ala (human, UniProt P00451 20-391; P00451 1709-2351)
T4 chain 1: T1 sequence 1 with E113A
T4 chain 2: T1 sequence 2 with A295E

B1: factor VIIIa A2 subunit, Glu665Val (other)
chain: SVAKKHPKTWVHYIAAEEEDWDYAPLVLAPDDRSYKSQYLNNGPQRIGRKYKKVRFMAYTDETFKTREAIQHESGILGPLLYGEVGDTLLIIFKNQASRPYNIYPHGITDVRPLYSRRLPKGVKHLKDFPILPGEIFKYKWTVTVEDGPTKSDPRCLTRYYSSFVNMERDLASGLIGPLLICYKESVDQRGNQIMSDKRNVILFSVFDENRSWYLTENIQRFLPNPAGVQLEDPEFQASNIMHSINGYVFDSLQLSVCLHEVAYWYILSIGAQTDFLSVFFSGYTFKHKMVYVDTLTLFPFSGETVFMSMENPGLWILGCHNSDFRNRGMTALLKVSSCDKNTGDYYEDSYEDISAYLLSKNNAIEPR
B2: factor VIIIa A2 subunit, Glu665Ala (other)
chain: B1 chain with V293A
B3: factor VIIIa A2 subunit, Asp519Val (other)
chain: B1 chain with D147V, V293E
B4: factor VIIIa A2 subunit, Asp519Ala (other)
chain: B1 chain with D147A, V293E

Experiments:
Assay in all cases: cell-based or functional assay
[1] = target: T1, factor VIIIa A1/A3C1C2 dimer, Glu1984Ala
[2] = target: T2, factor VIIIa A1/A3C1C2 dimer, wild type
[3] = target: T3, factor VIIIa A1/A3C1C2 dimer, Glu1984Val
[4] = target: T4, factor VIIIa A1/A3C1C2 dimer, Glu113Ala
[5] = target: T2, factor VIIIa A1/A3C1C2 dimer, wild type; remark: listed apart in the source
[6] = target: T1, factor VIIIa A1/A3C1C2 dimer, Glu1984Ala; remark: listed apart in the source
[7] = target: T3, factor VIIIa A1/A3C1C2 dimer, Glu1984Val; remark: listed apart in the source

Binder | Decay rate relative to wild type, Factor VIIIa (1.5 nM, factor IXa absent) [1] | Decay rate, Factor VIIIa (1.5 nM factor VIIIa, factor IXa absent) [1] [min⁻¹] | Decay rate relative to wild type, Factor VIIIa (1.5 nM, factor IXa absent) [2] | Decay rate, Factor VIIIa (1.5 nM factor VIIIa, factor IXa absent) [2] [min⁻¹] | Decay rate relative to wild type, Factor VIIIa (1.5 nM, factor IXa absent) [3] | Decay rate, Factor VIIIa (1.5 nM factor VIIIa, factor IXa absent) [3] [min⁻¹] | Decay rate relative to wild type, Factor VIIIa (1.5 nM, factor IXa absent) [4] | Decay rate, Factor VIIIa (1.5 nM factor VIIIa, factor IXa absent) [4] [min⁻¹] | Factor VIIIa Decay relative to the WT value, Factor IXa absent [5] | Factor VIIIa Decay relative to the WT value, Factor IXa present [5] | Factor VIIIa Decay, Factor IXa absent [5] [min⁻¹] | Factor VIIIa Decay, Factor IXa present [5] [min⁻¹] | factor VIIIa decay rate relative to the better single mutation of the pairing [6] [fold] | factor VIIIa decay rate relative to the better single mutation of the pairing [7] [fold]
B1 | 0.26 relative to wild type | 0.036 | 0.28 relative to wild type | 0.0395 | 0.48 relative to wild type | 0.0671 | 0.24 relative to wild type | 0.0333 | 0.19 relative to WT | 0.34 relative to WT | 0.016 | 0.0052 | – | –
B2 | 0.93 relative to wild type | 0.13 | 0.6 relative to wild type | 0.0834 | 0.9 relative to wild type | 0.127 | 0.54 relative to wild type | 0.0754 | 0.62 relative to WT | 0.51 relative to WT | 0.052 | 0.0078 | ~2.2 | ~2.7
B3 | 0.12 relative to wild type | 0.0168 | 0.6 relative to wild type | 0.0836 | 0.19 relative to wild type | 0.0262 | 0.35 relative to wild type | 0.0495 | 0.77 relative to WT | 0.44 relative to WT | 0.0642 | 0.0068 | – | –
B4 | 0.19 relative to wild type | 0.0266 | 0.64 relative to wild type | 0.0898 | 0.23 relative to wild type | 0.0319 | 0.53 relative to wild type | 0.0748 | 0.66 relative to WT | 0.41 relative to WT | 0.0556 | 0.0063 | – | –
